In patent US20240041988A1, “Use of elapidae postsynaptic neurotoxin in the treatment of over expression of inflammatory cytokines related diseases” (priority 2020, published 2024):

How the values were obtained:
[1] = tested on: interleukin 1 beta (IL-1 beta); assay: Carrageenan pleural inflammation rat model, serum IL-1 beta by ELISA; format: in vivo, Wistar rats; details: rat tail vein blood 6 hours after carrageenan, n = 10, inflammation group 52.40 ± 6.74, saline control 35.20 ± 4.78
Procedure: (§1) 140 Wistar rats (200-240 g) are randomly divided into 14 groups, and each group is 10. The preparation method comprises the following steps: (group 1) only receiving sterile normal saline ([…]) (control group); (group 2) carrageenan inflammation modeling+oral normal saline 10 ml/kg (inflammation group); (Group 3) Carrageenan Inflammation modeling+oral Naja atra postsynaptic neurotoxin (SEQ ID NO 1) 200 μg/kg prepared into a liquid state and continuous intragastric administration performed; (Group 4) Carrageenan Inflammation modeling+oral Naja atra postsynaptic neurotoxin (SEQ ID NO 1) 800 μg/kg prepared into a liquid state and continuous intragastric administration performed. (Group 5-14) The postsynaptic neurotoxin of Bungarus multicinctus, Ophiophagus Hannah, Naja kaouthia, Dendroaspis polylepis, Bungarus fasclatus, through the same administration model, that means carrageenan inflammation modeling+oral administration of 200 μg/kg and 800 μg/kg two doses respectively and continuously intragastric administration, so that the rat is divided into 14 groups.
(§2) Except for the […], 0.1 ml of sterile normal saline+carrageenan (CG, 1%) is injected into the rest 13 groups through pleural cavities for inflammation modeling. The preparation method comprises the following steps: 1 hour before molding, orally administration of normal saline or different types of postsynaptic neurotoxin with different doses respectively in each group, 6 hours after the carrageenan injection, collecting rat tail vein blood to detect the concentration of IL-1 beta and TNF-alpha.
(§3) The serum of the collected rat tail vein blood is separated and collected by using a commercial ELISA assay kit, and biochemical evaluation is carried out on the concentration of the tumor necrosis factor alpha (TN F-alpha) and interleukin 1 beta (IL-1 beta) according to the instructions of experimental step of the kit's manufacturer.

[2] = tested on: tumor necrosis factor alpha (TNF-alpha); assay: Carrageenan pleural inflammation rat model, serum TNF-alpha by ELISA; format: in vivo, Wistar rats; details: rat tail vein blood 6 hours after carrageenan, n = 10, inflammation group 61.30 ± 7.86, saline control 42.70 ± 5.93
Procedure: as §1, §2, §3

[3] = 200 μg/kg oral (intragastric) 1 hour before carrageenan
[4] = 800 μg/kg oral (intragastric) 1 hour before carrageenan

Molecule	IL-1β blood average concentration (x ± s) [1, 3]	IL-1β blood average concentration (x ± s) [1, 4] [ng/L]	TNF-a blood average concentration (x ± s) [2, 3] [ng/L]	TNF-a blood average concentration (x ± s) [2, 4] [ng/L]
SEQ ID No1 (protein, listed as Naja atra) LECHNQQSSQTPTTTGCSGGETNCYKKRWRDHRGYRTERGCGCPSVKNGIEINCCTTDRCNN	45.40 ± 4.95 ng/L	41.30 ± 4.31	53.70 ± 6.32	50.60 ± 5.89
SEQ ID No20 (protein, listed as Bungarus fasclatus) RICLNQQQSTPEDQPTNGQCYIKTDCQNKTWNTHRGSRTDRGCGCPKVKPGINLRCCKTDKCNE	44.10 ± 4.32 *^ ng/L	40.80 ± 3.78	52.82 ± 6.55	47.81 ± 5.72
SEQ ID No9 (protein, Ophiophagus hannah) TKCYKTGDRIISEACPPGQDLCYMKTWCDVFCGTRGRVIELGCTATCPTVKPHEQITCCSTDNCNPHPKMKQ	44.50 ± 4.97 ng/L	41.70 ± 4.23	54.80 ± 5.01	51.20 ± 5.76
